Measured values published in publication PMC6212441, “Direct visualization of DNA baton pass between replication factors bound to PCNA” (Scientific Reports, 2018).

Columns and labels:
[1] = biological target: T1, P. furiosus proliferating cell nuclear antigen (PCNA) (Pyrococcus furiosus), O73947; test: negative-stain electron microscopy, single particle analysis; FEN (D175A), PCNA and double flap DNA (Substrate-A) mixed in 50 mM Tris-HCl pH 8.0, 50 mM NaCl, 37 °C 10 min; complex isolated on Superdex 200 without crosslinking; 2% uranyl acetate stain; map at 19 Å with crystal structures fitted; conditions: remark: other sources report otherwise
T1 chain: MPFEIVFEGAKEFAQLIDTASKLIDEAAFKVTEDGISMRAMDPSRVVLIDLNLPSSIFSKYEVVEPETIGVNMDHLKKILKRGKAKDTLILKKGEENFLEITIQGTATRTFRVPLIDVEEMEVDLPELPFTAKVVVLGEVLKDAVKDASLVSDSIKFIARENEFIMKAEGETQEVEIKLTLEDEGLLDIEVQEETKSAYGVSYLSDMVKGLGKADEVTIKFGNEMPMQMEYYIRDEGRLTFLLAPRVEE

[2] = biological target: T2, P. furiosus DNA ligase (Lig) (Pyrococcus furiosus, UniProt P56709 1-561); test: negative-stain electron microscopy, single particle analysis; wild type FEN, Lig, PCNA and nonligatable nicked DNA (Substrate-B) mixed in 20 mM MES pH 6.5, 50 mM NaCl, 0.1 mM ATP, 5 mM MgCl2, 50 °C 10 min; complex isolated on Superdex 200 without crosslinking; 2% uranyl acetate stain; two classes, maps at 16 Å and 20 Å with crystal structures fitted; conditions: both partners purified
T2 construct: DNA ligase (Lig) of Pyrococcus furiosus, with DBD, AdD and OBD domains and the PIP-box motif 103-QKSFF-107
T2 sequence: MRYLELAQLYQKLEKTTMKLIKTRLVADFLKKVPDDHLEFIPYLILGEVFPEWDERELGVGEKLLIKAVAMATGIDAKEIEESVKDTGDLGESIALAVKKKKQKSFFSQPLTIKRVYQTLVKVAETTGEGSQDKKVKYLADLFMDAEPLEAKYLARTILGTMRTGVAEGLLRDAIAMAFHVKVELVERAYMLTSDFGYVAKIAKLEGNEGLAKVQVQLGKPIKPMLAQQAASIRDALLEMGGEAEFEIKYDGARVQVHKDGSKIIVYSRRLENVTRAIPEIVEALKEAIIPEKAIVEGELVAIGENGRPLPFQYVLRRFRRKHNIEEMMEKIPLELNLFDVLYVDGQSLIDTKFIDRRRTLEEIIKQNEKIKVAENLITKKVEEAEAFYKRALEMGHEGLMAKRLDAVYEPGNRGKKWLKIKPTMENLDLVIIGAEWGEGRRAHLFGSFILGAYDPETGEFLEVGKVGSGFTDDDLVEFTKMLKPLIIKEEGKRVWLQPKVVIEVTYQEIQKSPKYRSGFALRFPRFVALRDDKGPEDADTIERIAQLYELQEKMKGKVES

stoichiometry N [1]: 3
binding result [2]: binds
B1: P. furiosus proliferating cell nuclear antigen (PCNA) (natural protein, Pyrococcus furiosus)
chain: MPFEIVFEGAKEFAQLIDTASKLIDEAAFKVTEDGISMRAMDPSRVVLIDLNLPSSIFSKYEVVEPETIGVNMDHLKKILKRGKAKDTLILKKGEENFLEITIQGTATRTFRVPLIDVEEMEVDLPELPFTAKVVVLGEVLKDAVKDASLVSDSIKFIARENEFIMKAEGETQEVEIKLTLEDEGLLDIEVQEETKSAYGVSYLSDMVKGLGKADEVTIKFGNEMPMQMEYYIRDEGRLTFLLAPRVEE
notes: proliferating cell nuclear antigen (PCNA) of Pyrococcus furiosus, forms a homotrimeric ring; also called PCNA clamp; PCNA ring
